The supplement of paper PMC10567573

B1: PPEF2 (parent)
chain: FIPSSHNDRDFLTRIFTEDRFAQD

Variants of: B1
Experiment: protein stability index of a GFP-peptide fusion (GPS, HEK-293T) (PSI 1-6); higher = more stable
Settings: c terminus: a fixed tail appended
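Further: lentivirally expressed fusions sorted by FACS into six bins by GFP to DsRed ratio, PSI derived from sequencing read proportions per bin multiplied by bin number.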

Protein stability index, by site and new letter:
F16: E 2.02; T 2.59; P 2.96; V 2.6; D 2.18; I 1.83; C 2.48; Y 1.21; R 1.88; L 1.91; A 1.76; G 1.92; M 1.84; N 2.12; S 1.72; K 1.47; H 1.69; Q 2.06
D10: E 1.96; P 2.14; W 2.6; Y 2.39; Q 2.77; N 2.96; T 2.54; F 2.05; H 2.8; R 2.67; M 1.87; V 3.75; C 2.41; G 2.46; K 1.89; I 3.22; A 2.69; S 2.37
N7: I 2.11; A 1.65; C 2.17; F 1.89; D 1.56; L 1.97; K 2.99; Y 2.95; Q 2.46; V 1.8; E 2.39; G 2.01; T 2.17; P 1.92; R 2.33; M 2.22; W 1.6; S 1.73; H 3.59
L12: F 2.18; M 1.53; R 1.72; V 2.86; A 2.82; C 2.29; I 3.01; H 2.33; N 1.45; D 2.26; T 2.17; Q 1.82; G 1.52; E 2.2; P 1.74; W 2.85; K 2.38; Y 1.98; S 1.54
I15: S 1.84; F 2.2; N 1.83; W 2.66; Y 2.22; D 2.01; G 1.98; M 2.24; R 2.9; L 1.56; E 2.44; C 3.07; A 1.61; Q 2.19; K 2.77; T 2.45; H 2.4; P 1.91
R14: T 2.36; H 2.04; N 2.12; V 3.04; W 2.5; L 2; I 2.61; C 1.78; Q 1.93; P 2.81; M 2.55; S 3.48; F 2.7; D 2.5; E 2.34; Y 1.7; A 1.58; K 1.55; G 1.95
D19: K 2.44; A 3.2; Q 1.68; W 1.99; L 1.96; V 2.14; I 2.76; P 1.99; N 1.57; E 2.32; S 2.51; M 3.16; H 1.54; R 1.8; Y 1.79; G 2.46; C 2.12; F 1.77; T 2.8
D24: K 1.99; N 1.62; S 2.93; T 1.52; R 2.19; Q 1.27; C 1.75; A 2.61; L 2.2; H 3.06; F 2.83; I 2.99; M 1.94; P 1.73; E 1.95; G 2.13
Q23: Y 2.84; F 2.44; M 2.09; V 2.15; S 2.35; D 1.72; C 2.27; N 2.68; A 1.96; E 2.06; L 2.06; P 3.1; W 2.55; G 1.89; H 2.18; R 3.08; K 2.33; T 3.01; I 1.99
R9: A 2.23; E 1.89; S 1.98; P 1.69; V 2.2; N 1.76; T 1.74; C 2.23; Y 1.89; M 2.3; G 2.01; F 2.21; H 1.54; I 1.76; L 1.81; W 2.3; D 2.18; Q 1.53; K 2.48
D8: S 1.3; W 2.16; F 2.38; T 2.1; H 2.04; P 1.89; A 1.89; G 2.51; Y 2.55; I 1.68; N 1.99; M 1.93; E 1.53; Q 2.15; K 1.53; C 2.03; L 1.52; V 2.08; R 2.25
T17: Q 1.79; L 2.65; R 1.73; F 1.87; C 3.8; A 1.71; H 1.54; S 2.05; W 2.79; V 1.85; D 1.95; E 2.19; M 2.54; I 2.08; P 1.97; K 3.08; G 2.7; Y 2.08; N 1.68
R20: Y 2.37; P 2.41; W 2.54; S 2.65; I 1.32; D 2.42; G 1.69; V 1.99; L 2.05; M 1.39; T 1.47; F 2.24; C 2.1; E 1.81; N 2.07; K 2.11; A 2.05; H 3.22; Q 2.15
A22: K 3.16; L 2; R 2.16; S 1.63; N 2.59; T 1.93; H 1.83; M 1.8; I 1.78; D 2.56; Q 2.15; G 1.89; C 1.95; E 2.2; Y 1.61; F 2.07; V 2.56; W 3.33; P 1.95
F21: H 1.87; V 1.64; P 2.02; D 2.52; K 1.84; I 1.74; T 1.75; N 2.54; R 1.75; L 2.27; C 1.81; A 1.59; S 1.65; E 1.81; Y 2.27; M 1.87; G 1.92; W 2.09; Q 1.98
E18: S 2.18; I 3.03; L 2.19; M 2.96; D 2.37; F 2.52; W 2.25; K 2.47; A 2.64; H 3.19; T 2.27; G 1.48; N 2.12; Q 1.71; V 2.51; Y 1.54; C 2.79; R 2.16; P 2.98
T13: P 1.82; D 1.83; E 2; N 1.7; H 1.6; Q 1.55; Y 2.65; G 2.42; I 2.21; F 1.5; C 2.75; L 3.13; K 1.38; R 1.91; A 2.57; S 1.83; V 1.8
F11: L 1.56; A 1.98; S 1.58; T 1.7; Q 2; I 1.8; C 2.8; W 1.93; Y 2.1; V 2.01; H 1.89; G 2.21; K 1.76; R 1.99; E 2.33; D 2.74; P 2.16; M 2.13; N 2.67
